Measurements reported in paper PMC3048092.

Target: FITC-BAD pSAHB-2
Experiment: cross-linking

crosslinking conversion at 2 hours of UV exposure: 35%
Substance: BCL-XLΔC (domain or fragment)
